Source: patent US20090304746A1
Where two headings read alike, the source gives them in different places.

Tests used:
HLA-B*0702 (Human) = experiment: competition with 125I-labelled standard peptide for purified HLA, gel filtration
HLA-B*3501 (Human) = experiment: as above
HLA-B*5301 (Human) = experiment: as above
HLA-B*5101 (Human) = experiment: as above
HLA-B*5401 (Human) = experiment: as above
HLA-A*1101 (human) [1] = molecular target: HLA-A*1101 (human)
HLA-A*0301 (human) [2] = experiment: competition with 125I-labelled standard peptide on purified HLA, gel filtration
HLA-A*1101 (human) [3] = molecular target: HLA-A*1101 (human); remark: listed apart in the source
HLA-A*0301 (human) [4] = molecular target: HLA-A*0301 (human)
[5] = molecular target: T1, HLA-DR7 (DRB1*0701) (human)
T1 chain 1: not shown
T1 chain 2: not shown

HLA-A*1101 (human) [6] = molecular target: HLA-A*1101 (human); remark: listed apart in the source
[7] = molecular target: T2, HLA-DR4w4 (DRB1*0401) (human); experiment: purified HLA-DR, inhibition of 125I standard peptide, gel filtration
T2 chain 1: not shown
T2 chain 2: not shown

[8] = molecular target: T3, HLA-DR4w15 (DRB1*0405) (human); experiment: as above
T3 chain 1: not shown
T3 chain 2: not shown

[9] = molecular target: T4, HLA-DR1 (DRB1*0101) (human); experiment: as above
T4 chain 1: not shown
T4 chain 2: not shown

[10] = molecular target: T5, HLA-DR6w19 (DRB1*1302) (human); experiment: as above
T5 chain 1: not shown
T5 chain 2: not shown

[11] = molecular target: T6, HLA-DR5w11 (DRB1*1101) (human); experiment: as above
T6 chain 1: not shown
T6 chain 2: not shown

[12] = molecular target: T7, HLA-DR9 (DRB1*0901) (human); experiment: as above
T7 chain 1: not shown
T7 chain 2: not shown

[13] = molecular target: T1, HLA-DR7 (DRB1*0701) (human); experiment: as above
HLA-A*0301 (human) [14] = molecular target: HLA-A*0301 (human); remark: listed apart in the source
HLA-A*1101 (human) [15] = molecular target: HLA-A*1101 (human); remark: listed apart in the source
HLA-A*0301 (human) [16] = experiment: competition with 125I-labelled standard peptide on purified HLA, gel filtration; remark: listed apart in the source
[17] = molecular target: T8, HLA-DR8w2 (DRB1*0802) (human); experiment: purified HLA-DR, inhibition of 125I standard peptide, gel filtration
T8 chain 1: not shown
T8 chain 2: not shown

[18] = remark: other sources report otherwise

B1: HCV peptide … (HCV polyprotein position 1420) (peptide)
peptide: VAYYRGLDV
modifications: not checked
binding affinity ratio (IC50 of standard peptide / IC50 of test peptide) (HLA-A*0201 (human)): 0.0001

B2: … (peptide)
peptide: QPEYDLELI
modifications: not checked
binding affinity ratio (IC50 standard/IC50 test) (HLA-B*0702 (Human)): 0.0001 | binding affinity ratio (IC50 standard/IC50 test) (HLA-B*3501 (Human)): 0.0002 | binding affinity ratio (IC50 standard/IC50 test) (HLA-B*5301 (Human)): 0.0001 | binding affinity ratio (IC50 standard/IC50 test) (HLA-B*5101 (Human)): 0.0002 | binding affinity ratio (IC50 standard/IC50 test) (HLA-B*5401 (Human)): 0.0002

B3: … (HCV polyprotein position 1939, 10-mer, A11 motif peptide) (peptide)
peptide: YVPESDAAAR
modifications: not checked
binding affinity ratio (IC50 of standard peptide / IC50 of test peptide) (HLA-A*1101 (human) [1]): 0.0001

B4: … (peptide)
peptide: LPVCQDHLEF
modifications: not checked
binding affinity ratio (IC50 standard/IC50 test) (HLA-B*0702 (Human); [18]): 0.0001 | binding affinity ratio (IC50 standard/IC50 test) (HLA-B*5101 (Human); [18]): 0.0002 | binding affinity ratio (IC50 standard/IC50 test) (HLA-B*5401 (Human); [18]): 0.0003

B5: … (HCV polyprotein position 96, 9-mer, A11 motif peptide) (peptide)
peptide: WLLSPRGSR
modifications: not checked
binding affinity ratio (IC50 of standard peptide / IC50 of test peptide) (HLA-A*1101 (human) [1]): 0.0005

B6: HCV peptide … (HCV polyprotein position 1622) (peptide)
peptide: TLHGPTPLL
modifications: not checked
binding affinity ratio (IC50 of standard peptide / IC50 of test peptide) (HLA-A*0201 (human)): 0.007

B7: HCV peptide … (polyprotein position 30) (peptide)
peptide: IVGGVYLLPR
modifications: not checked
binding affinity ratio (IC50 of standard peptide / IC50 of test peptide) (HLA-A*0301 (human) [2]): 0.0008 | binding affinity ratio (IC50 of standard peptide / IC50 of test peptide) (HLA-A*1101 (human) [3]): 0.0056 | binding affinity ratio (IC50 of standard peptide / IC50 of test peptide) (HLA-A*0301 (human) [4]): 0.0008

B8: HCV peptide … (polyprotein position 516) (peptide)
peptide: PVVVGTTDR
modifications: not checked
binding affinity ratio (IC50 of standard peptide / IC50 of test peptide) (HLA-A*1101 (human) [3]): 0.0005 | binding affinity ratio (IC50 of standard peptide / IC50 of test peptide) (HLA-A*0301 (human) [4]): 0.0008

B9: HCV peptide … (polyprotein position 2612) (peptide)
peptide: LIVFPDLGVR
modifications: not checked
binding affinity ratio (IC50 of standard peptide / IC50 of test peptide) (HLA-A*0301 (human) [4]): 0.0003

B10: … (peptide)
peptide: PPPSWDQMW
modifications: not checked
binding affinity ratio (IC50 standard/IC50 test) (HLA-B*0702 (Human)): 0.0001 | binding affinity ratio (IC50 standard/IC50 test) (HLA-B*3501 (Human)): 0.0002 | binding affinity ratio (IC50 standard/IC50 test) (HLA-B*5301 (Human)): 0.0001 | binding affinity ratio (IC50 standard/IC50 test) (HLA-B*5101 (Human)): 0.0001 | binding affinity ratio (IC50 standard/IC50 test) (HLA-B*5401 (Human)): 0.0002

B11: HCV NS5 2243 peptide 1283.49 (peptide)
peptide: RQEMGGNITRVESEN
modifications: not checked
binding affinity ratio (relative to standard peptide) [5]: 0.0002

B12: … (HCV polyprotein position 52, 10-mer) (peptide)
peptide: TSERSQPRGR
modifications: not checked
binding affinity ratio (IC50 of standard peptide / IC50 of test peptide) (HLA-A*1101 (human) [6]): 0.0001

B13: HCV peptide … (core …) (peptide)
peptide: CGPVYCFTPSPVVVG
modifications: not checked
relative binding (IC50 of standard peptide / IC50 of test peptide) [7]: 0.26 | relative binding (IC50 of standard peptide / IC50 of test peptide) [8]: 0.4 | relative binding (IC50 of standard peptide / IC50 of test peptide) [9]: 0.27

B14: HCV peptide … (core …) (peptide)
peptide: VYCFTPSPVVVGTTD
modifications: not checked
relative binding (IC50 of standard peptide / IC50 of test peptide) [10]: 0.0001 | relative binding (IC50 of standard peptide / IC50 of test peptide) [11]: 0.0056 | relative binding (IC50 of standard peptide / IC50 of test peptide) [12]: 0.18 | relative binding (IC50 of standard peptide / IC50 of test peptide) [13]: 0.074

B15: … (HCV polyprotein position 2177, 9-mer) (peptide)
peptide: TSMLTDPSH
modifications: not checked
binding affinity ratio (IC50 of standard peptide / IC50 of test peptide) (HLA-A*1101 (human) [6]): 0.0001

B16: … (HCV polyprotein position 1592) (peptide)
peptide: VAYQATVCAR
modifications: not checked
binding affinity ratio (IC50 of standard peptide / IC50 of test peptide) (HLA-A*0301 (human) [14]): 0.0005

B17: HCV peptide … (polyprotein position 2207) (peptide)
peptide: SASQLSAPSLK
modifications: not checked
binding affinity ratio (IC50 of standard peptide / IC50 of test peptide) (HLA-A*1101 (human) [3]): 0.0044 | binding affinity ratio (IC50 of standard peptide / IC50 of test peptide) (HLA-A*0301 (human) [4]): 0.0003

B18: … (HCV polyprotein position 1670) (peptide)
peptide: GVLAALAAY
modifications: not checked
binding affinity ratio (IC50 of standard peptide / IC50 of test peptide) (HLA-A*1101 (human) [15]): 0.011

B19: HCV peptide … (polyprotein position 10) (peptide)
peptide: KTKRNTNRR
modifications: not checked
binding affinity ratio (IC50 of standard peptide / IC50 of test peptide) (HLA-A*0301 (human) [2]): 0.011 | binding affinity ratio (IC50 of standard peptide / IC50 of test peptide) (HLA-A*0301 (human) [16]): 0.011 | binding affinity ratio (IC50 of standard peptide / IC50 of test peptide) (HLA-A*1101 (human) [3]; [18]): 0.01

B20: … (peptide)
peptide: QPGYPWPLY
modifications: not checked
binding affinity ratio (IC50 standard/IC50 test) (HLA-B*0702 (Human)): 0.0001 | binding affinity ratio (IC50 standard/IC50 test) (HLA-B*5301 (Human)): 0.0001 | binding affinity ratio (IC50 standard/IC50 test) (HLA-B*5101 (Human)): 0.0002 | binding affinity ratio (IC50 standard/IC50 test) (HLA-B*5401 (Human)): 0.0002

B21: … (HCV polyprotein position 2177) (peptide)
peptide: TSMLTDPSH
modifications: not checked
binding affinity ratio (IC50 of standard peptide / IC50 of test peptide) (HLA-A*0301 (human) [14]): 0.0003

B22: … (HCV polyprotein position 52) (peptide)
peptide: TSERSQPRGR
modifications: not checked
binding affinity ratio (IC50 of standard peptide / IC50 of test peptide) (HLA-A*0301 (human) [14]): 0.0003

B23: HCV peptide … (core …) (peptide)
peptide: LELITSCSSNVSVAH
modifications: not checked
relative binding (IC50 of standard peptide / IC50 of test peptide) [17]: 0.0003 | relative binding (IC50 of standard peptide / IC50 of test peptide) [10]: 0.051 | relative binding (IC50 of standard peptide / IC50 of test peptide) [11]: 0.0008 | relative binding (IC50 of standard peptide / IC50 of test peptide) [12]: 0.033

B24: … (HCV polyprotein position 1568, 9-mer) (peptide)
peptide: TGLTHIDAH
modifications: not checked
binding affinity ratio (IC50 of standard peptide / IC50 of test peptide) (HLA-A*1101 (human) [6]): 0.0001

B25: HCV peptide … (core …) (peptide)
peptide: DVVVVATDALMTGYT
modifications: not checked
relative binding (IC50 of standard peptide / IC50 of test peptide) [7, 18]: 0.018 | relative binding (IC50 of standard peptide / IC50 of test peptide) [8, 18]: 0.0072

B26: HCV peptide … (core …) (peptide)
peptide: FTGLTHIDAHFLSQT
modifications: not checked
relative binding (IC50 of standard peptide / IC50 of test peptide) [17]: 0.05 | relative binding (IC50 of standard peptide / IC50 of test peptide) [10]: 0.0002 | relative binding (IC50 of standard peptide / IC50 of test peptide) [11]: 0.0083 | relative binding (IC50 of standard peptide / IC50 of test peptide) [12]: 0.0056

B27: … (peptide)
peptide: NPSVAATLGF
modifications: not checked
binding affinity ratio (IC50 standard/IC50 test) (HLA-B*0702 (Human)): 0.0001 | binding affinity ratio (IC50 standard/IC50 test) (HLA-B*3501 (Human)): 0.0001 | binding affinity ratio (IC50 standard/IC50 test) (HLA-B*5301 (Human)): 0.0001 | binding affinity ratio (IC50 standard/IC50 test) (HLA-B*5101 (Human)): 0.0002 | binding affinity ratio (IC50 standard/IC50 test) (HLA-B*5401 (Human)): 0.0003

B28: HCV peptide … (HCV polyprotein position 686) (peptide)
peptide: TLPALSTGL
modifications: not checked
binding affinity ratio (IC50 of standard peptide / IC50 of test peptide) (HLA-A*0201 (human)): 0.0003

B29: HCV NS5 2589 peptide 1283.51 (peptide)
peptide: TTIMAKNEVFCVQPE
modifications: not checked
binding affinity ratio (relative to standard peptide) [5, 18]: 0.0025

B30: … (HCV polyprotein position 1592, 10-mer) (peptide)
peptide: VAYQATVCAR
modifications: not checked
binding affinity ratio (IC50 of standard peptide / IC50 of test peptide) (HLA-A*1101 (human) [6]): 0.0038

B31: HCV peptide … (polyprotein position 1925) (peptide)
peptide: IAFASRGNH
modifications: not checked
binding affinity ratio (IC50 of standard peptide / IC50 of test peptide) (HLA-A*0301 (human) [2]): 0.0003

B32: HCV peptide … (HCV polyprotein position 1592) (peptide)
peptide: VAYQATVCA
modifications: not checked
binding affinity ratio (IC50 of standard peptide / IC50 of test peptide) (HLA-A*0201 (human)): 0.0005

B33: … (HCV polyprotein position 1568) (peptide)
peptide: TGLTHIDAH
modifications: not checked
binding affinity ratio (IC50 of standard peptide / IC50 of test peptide) (HLA-A*0301 (human) [14]): 0.0003

B34: HCV peptide … (polyprotein position 109) (peptide)
peptide: PTDPRRRSR
modifications: not checked
binding affinity ratio (IC50 of standard peptide / IC50 of test peptide) (HLA-A*0301 (human) [16]): 0.0008 | binding affinity ratio (IC50 of standard peptide / IC50 of test peptide) (HLA-A*1101 (human) [3]): 0.0005

B35: … (HCV polyprotein position 1392) (peptide)
peptide: GGRHLIFCH
modifications: not checked
binding affinity ratio (IC50 of standard peptide / IC50 of test peptide) (HLA-A*1101 (human) [15]): 0.0001
